According to US10234460B2, “Macrocyclic peptide, method for producing same, and screening method using macrocyclic peptide library” (The University of Tokyo, priority 2013, dated 2019):
Bridge positions count the residues as written; N and C are the ends. Square brackets hold non-standard residues; d marks the D form. Ends that are not written are not given here. * marks the point of attachment. chloroacetamidine = chloroacetamidine warhead on ornithine δ-NH2, N=C(CCl)*; Ahp(2) = CCCCC[C@H](N)C(=O)O; Orn = NCCC[C@H](N)C(=O)O

Experiments:
[1] = target: T1, PAD4 (Homo sapiens, UniProt Q9UM07); test: In vitro PAD4 inhibition assay, colorimetric analysis with COLDER solution, substrate BAEE; format: biochemical; settings: peptide 0 μM to 50 μM, PAD4 0.2 μM, BAEE 10 mM; for PAD4 inhibition, dose dependence / PAD4 inhibitory activity compared with the existing PAD4 inhibitor: initial data
T1 construct: purchased Modiquest Research MQ 16.206-10
T1 sequence (Q9UM07 whole entry): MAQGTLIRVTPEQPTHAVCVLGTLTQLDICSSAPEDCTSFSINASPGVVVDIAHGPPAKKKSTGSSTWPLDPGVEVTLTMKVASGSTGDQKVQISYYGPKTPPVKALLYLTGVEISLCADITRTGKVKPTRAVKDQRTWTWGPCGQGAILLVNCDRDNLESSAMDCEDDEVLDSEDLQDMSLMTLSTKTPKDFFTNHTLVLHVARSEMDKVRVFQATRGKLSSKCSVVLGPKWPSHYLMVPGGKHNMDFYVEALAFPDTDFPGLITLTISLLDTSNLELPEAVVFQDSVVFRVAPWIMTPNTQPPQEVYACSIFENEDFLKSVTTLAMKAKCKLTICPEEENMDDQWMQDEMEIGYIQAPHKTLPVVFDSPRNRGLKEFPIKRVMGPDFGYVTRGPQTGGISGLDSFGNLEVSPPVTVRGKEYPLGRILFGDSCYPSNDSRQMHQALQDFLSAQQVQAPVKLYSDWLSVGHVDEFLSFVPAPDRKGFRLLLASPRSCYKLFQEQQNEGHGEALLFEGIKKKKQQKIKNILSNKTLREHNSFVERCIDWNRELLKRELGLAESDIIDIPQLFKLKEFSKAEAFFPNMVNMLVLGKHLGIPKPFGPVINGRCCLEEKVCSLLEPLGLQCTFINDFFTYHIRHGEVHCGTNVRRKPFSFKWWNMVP
Protocol: Human PAD4 was purchased from Modiquest Research (catalog no. MQ 16.206-10). Human PAD4 is a protein having NCBI accession no. CCDS180.1, a molecular weight of 74.08 kDa, and 663 amino acids.
PAD4 inhibition assay was performed using various concentrations of VB peptides in a reaction buffer containing 100 mM HEPES (pH 7.6) and 50 mM NaCl.
Before reaction was initiated by adding BAEE (final concentration: 10 mM), the above reaction mixture was incubated with PAD4 (0.2 μM) (in the presence of 5 mM CaCl2) at 37° C. for 15 minutes. After reaction for 30 minutes, the reaction was terminated by flash freezing in liquid nitrogen. For color development, 200 μL of a freshly prepared COLDER solution (2.25 M H3PO4, 4.5 M H2SO4, 1.5 mM NH4Fe(SO4), 20 mM diacetyl monoxime, and 1.5 mM thiosemicarbazide) was added to each of the reaction terminated solutions. The resulting mixture was vortexed to ensure complete mixing and then, incubated at 95° C. for 30 minutes (Firestein, G. S., 2003, Nature, 423(6937), 356-61; Jones, J. E., et al., ACS chemical biology, 7(1), 160-5). The absorbance at 540 nm was measured. Compared with a standard curve of Cit, the concentration of Cit produced during the reaction was determined.

[2] = test system: HeLa cells; test: Intracellular introduction of fluorescently labeled peptides into living HeLa cells, confocal microscope; format: cell-based; settings: 37° C., 60 minutes
Protocol: HeLa cells proliferated on a 90-mm plate until they reached sub-confluence and Trypsin/EDTA were treated at 37° C. for […] to release the cells from the plate. A culture dish (Iwaki) having a 35-mm glass bottom was seeded with 1×10^4 cells. […] The latter ones were used for confirming cell integrity. The intracellular distribution of the fluorescently labeled peptide was analyzed using a Leica TCS SP2 microscope equipped with an N PLAN 40× objective lens, without washing and immobilization. The HeLa cells were incubated with the fluorescently labeled peptides, at 37° C. for 60 minutes. […], they were observed under a confocal fluorescence microscope. All the assays were performed using a small dish with a glass bottom so that not a sample having the cells mounted thereon but a sample in a buffer was observed. DRAQ7 (3 μM) is a far-red fluorescent dye and it dyes only the nuclei of permeable dead cells. When the peptides are incubated, this DRAQ7 is added to find whether the cells are alive or not.

| PAD4 inhibitory ability relative to Cl-amidine and VB1C12 peptide [1] [times] | PAD4 inhibition, dose dependence [1] | Substance | concentration necessary for incorporation in HeLa cells [2] | PAD4 inhibitory activity compared with the existing PAD4 inhibitor [1] |
| --- | --- | --- | --- | --- |
| 2.7 | – | VB1C12-Cl-amidine analog: VB1C12 peptide with a haloacetamidine warhead introduced by modifying the Arg residue (ornithine δNH2 chloroacetamidine) (Ac-[dF]NA[Ahp(2)]YPY[Orn](chloroacetamidine)PP[Ahp(2)]TSC; bridge N-14; not fully specified (C-terminus, bridges)) | – | – |
| – | dose-dependently inhibit PAD4 | ^ClAc-D-F-D-A-Ahep-Y-P-F-R-P-P-Ahep-A-H-C (Ac-[dF]DA[Ahp(2)]YPFRPP[Ahp(2)]AHC; bridge N-14; not fully specified (C-terminus, bridges); printed as ClAc-D-F-D-A-Ahep-Y-P-F-R-P-P-Ahep-A-H-C) [VB1C20] | at least 10 μM | not stronger than that of the existing PAD4 inhibitor |
| – | dose-dependently inhibit PAD4 | ^ClAc-D-F-N-A-Ahep-Y-P-Y-R-P-P-Ahep-T-S-C ({CH2CO}-[dF]NA[Ahp(2)]YPYRPP[Ahp(2)]TSC-NH2; thioether N-14; SMILES CCCCC[C@@H]1NC(=O)[C@H](C)NC(=O)[C@H](CC(N)=O)NC(=O)[C@@H](Cc2ccccc2)NC(=O)CSC[C@@H](C(N)=O)NC(=O)[C@H](CO)NC(=O)[C@H]([C@@H](C)O)NC(=O)[C@H](CCCCC)NC(=O)[C@@H]2CCCN2C(=O)[C@@H]2CCCN2C(=O)[C@H](CCCNC(=N)N)NC(=O)[C@H](Cc2ccc(O)cc2)NC(=O)[C@@H]2CCCN2C(=O)[C@H](Cc2ccc(O)cc2)NC1=O) [VB1C12] | – | not stronger than that of the existing PAD4 inhibitor |
